Holding throughout (experiment): IEDB peptide-MHC binding, purified MHC/competitive/radioactivity; ≥ and ≤ were set here for values at or beyond the usual limits of such assays
Common to all, as to conditions: source organism: Bordetella pertussis

Test [1] concerns the target HLA-A*02:01.
Test [2] has as its target HLA-B*07:02.
For test [3], the target named is HLA-B*35:01.
Test [4] deals with HLA-B*53:01.
The target in test [5] is HLA-B*57:01.
Test [6] concerns the target HLA-B*44:03.

pIC50: −log10 of the molar value.

As to AALGRGHSL, the values for the negative-log IC50 (pIC50) in test [1] and in test [2] were 4.49 and 4.71, respectively.
Consider EATQQAAGF, for which the negative logarithm of the IC50 (pIC50) in test [3] is 4.39.
With GYEAGFSLG, in test [4], the negative logarithm of the IC50 (pIC50) is 4.59.
For the sequence HADDGTIVI, in test [4], the pIC50 was 4.16.
Take HAQGKALLY: the negative logarithm of the IC50 (pIC50) in test [3] was 6.41.
For ITNETGKTY, in test [5], the pIC50 was at most 4.15.
With LASDGSVDF, the negative logarithm of the IC50 (pIC50) in test [4] is 4.64.
For the sequence LVFSHVRGM, the pIC50 in test [3] was 4.70.
For MIYMSGLAV, the pIC50 in test [1] is 5.54.
As to PGPTTDYST, in test [6], the negative-log IC50 (pIC50) is at most 4.11.
Regarding QITQHGGPY, the negative logarithm of the IC50 (pIC50) in test [3] was 4.36.
The same measure, in the same setting: the same measure for QITQHGSPY: 4.46.
Take TSRTVTMRY: in test [5], the negative logarithm of the IC50 (pIC50) was 6.74.
TVQELALKL: the negative-log IC50 (pIC50) in test [6] is 4.90.
As to VAMKPYEVT, the pIC50 in test [3] is 4.16.
As to VAVAGGRWH, the pIC50 in test [6] was at most 4.11.

(Values after the Immune Epitope Database (IEDB).)
